According to article PMC4083873, “Expression and characterization of a β-fructofuranosidase from the parasitic protist Trichomonas vaginalis” (BMC Biochemistry, 2014):

Key:
[1] = substrate: OC[C@H]1O[C@H](OC[C@H]2O[C@H](O[C@]3(CO)O[C@H](CO)[C@@H](O)[C@@H]3O)[C@H](O)[C@@H](O)[C@@H]2O)[C@H](O)[C@@H](O)[C@H]1O; experiment: coupled hexokinase / glucose-6-phosphate dehydrogenase / phosphoglucose isomerase assay of released fructose; Michaelis-Menten fit; type: biochemical, Trichomonas vaginalis; details: 20 mM sodium acetate, pH 5.0, 30 °C, ~27 nM enzyme
Text: coupled hexokinase / glucose-6-phosphate dehydrogenase / phosphoglucose isomerase assay of released fructose; Michaelis-Menten fit on T. vaginalis β-fructofuranosidase

[2] = substrate: OC[C@H]1O[C@@](CO)(O[C@H]2O[C@H](CO)[C@@H](O)[C@H](O)[C@H]2O)[C@@H](O)[C@@H]1O; experiment: coupled hexokinase / glucose-6-phosphate dehydrogenase assay of released glucose; Michaelis-Menten fit; type: biochemical, Trichomonas vaginalis; details: 20 mM sodium acetate, pH 5.0, 30 °C, ~27 nM enzyme
Text: coupled hexokinase / glucose-6-phosphate dehydrogenase assay of released glucose; Michaelis-Menten fit on T. vaginalis β-fructofuranosidase

B1: T. vaginalis β-fructofuranosidase (Trichomonas vaginalis G3) (protein)
chain: MNFSSRLKFHFEPLKGWMNDPNGLIQFKGEYHAFFQHYPFDTKWGPMHWGHATSKDLIHWEHKPIALYPDQEYENNGGCFSGSAIEFNDKLHIFYTGVGKSNGQSQCHAVMQDENRFIKDPKNPIIKSPPIEYGINDFRDPKVVKIENTFYMVVGTGKDGIGRVLLYKSSNLENWTFLNLLVEGKEYGQCCECPDLIQIDNQFFLMFSQMTGQGIGTLFFHLKYENGTFTVDKKLNQPIIGPDFYAPQTFHDDKGRRIIIGWLYNWKRVPPKEVDYAGAFTIPCELKYKEGKIVVNPIDEISHELKSESKFVEIQENKLIINGKPSVIHEGKIENIKILEDVKTIEVWINNGEFYYSTWLF
notes: E. coli BL21(DE3); IMAC; calculated 44 kDa
[1]
  Km: 5.5 ± 0.9 mM
  Vmax: 368 µmol/min/mg
  kcat: 270 ± 12 s⁻¹
[2]
  Km: 20.6 ± 2.2 mM
  Vmax: 1580 µmol/min/mg
  kcat: 1160 ± 36 s⁻¹
